Measured values as given in patent US7670820B2, “Chitinase and uses thereof” (Academia Sinica, priority 2007, dated 2010).
Where “and” joins values, the source holds several entries; their conditions need not be identical. Equal entries are not always repeated. Where two headings read alike, the source gives them in different places.

Experiments:
CpCHI = type: biochemical, Carica papaya
Procedure: (§1) Chitinase activity was generally measured using glycol chitin as a substrate. All enzymes other than CpCHI, were purchased from Promega (Madison, Wis.). Chemicals were purchased from Merck (Darmstadt, Germany). An enzyme solution (10 μL) was added to 100 μL of 1% (w/v) glycolchitin dissolved in 90 μL of a sodium acetate buffer (100 mM, pH 5.0), and was incubated at 30° C. for 3 hours. The reducing end group produced was measured calorimetrically at 420 nm with 200 μL of a potassium ferricyanide (K3Fe(CN)6) reagent according to the method descried in Boller et al., 1983, Planta. 157, 22-31. Reduced sugar levels were determined relative to N-acetyl-β-D-glucosamine standards of 0-150 μg mL^−1. One unit of chitinase activity is defined as the amount of enzyme producing 1 μmol reducing sugar per minute at 30° C. Substrate and enzyme blanks were also prepared in which the enzyme or substrate was incubated with a buffer. All measured values of absorbency were normalized against appropriate blank absorbencies. In this example, collodial chitin and chitosan were also used as substrate for subtract specificity analysis.
To analyze the effect of metals and other factors on chitinase activity, the enzyme was preincubated with a 10 mM of different metals and inhibitors. After 30 minutes, the remaining chitinase activity was measured in the manner described above.

[1] = Chitinase activity with glycol chitin as substrate (colorimetric reducing-sugar assay); type: biochemical
Procedure: as §1
The optimal pH of the chitiolytic activity of CpCHI was determined by incubating the purified recombinant enzyme (5 μg) at different pH (3-10) at 30° C. for 3 hours using glycol chitin as the substrate. An acetate buffer (100 mM) was used for pH 3-5, a phosphate buffer (100 mM) for pH 6˜7, a Tris-HCl buffer (100 mM) for pH 8, and a glycine-NaOH buffer for pH 9 and 10. The optimal temperature was determined by incubating the purified chitinase (5 μg) at different temperatures (10˜90° C.) at pH 6.0 for 3 hours using glycol chitin as the substrate. The highest activity was calculated as relative activity (RA) 100%.

[2] = Chitinase substrate specificity, collodial chitin as substrate; type: biochemical; conditions: relative to glycol chitin
Procedure: as §1

[3] = Chitinase substrate specificity, chitosan as substrate; type: biochemical; conditions: relative to glycol chitin
Procedure: as §1

[4] = type: physicochemical
Procedure: The pH stability of recombinant CpCHI was determined. Briefly, purified recombinant CpCHI was incubated in buffers with pH from 3.0 to 10.0 at 30° C. for 3 hours. The residual activity was then determined at a standard condition (30° C. for 3 hours at pH 6.0). The results were averaged from three independent experiments.
The stability of recombinant CpCHI during long-term storage was examined. […] The enzyme retained more than 60% of its activity for 3 weeks at 30° C. and more than 50% activity for 3 weeks at 37° C. The results were also averaged from three independent experiments.

[5] = HPLC analysis of chitin hydrolysis by CpCHI; type: biochemical
Procedure: Chitin hydrolysis was carried out in a phosphate buffer (100 mM, pH 6) at 30° C. with shaking. The concentrations of chitinase and glycol chitin suspension were 750 ng μL^−1 and 100 μg mL^−1, respectively. The reactions were quenched with 10% (v/v) acetic acid. […] The column was connected to an Agilent Technologies 1100 series HPLC system under the control of a Thermo Finnigan LCQ DECA electrospray mass spectrometer. The mass-to-charge ratios (m/z) of the expected oligosaccharides were selected as follows: Glc-NAc (221.9), (GlcNAc)2 (425.5), (GlcNAc)3 (627.6), (GlcNAc)4 (830.8), (GlcNAc)5 (1034.0), (GlcNAc)6 (1237.2), and (GlcNAc)7 (1440.0).

Phytophthora sp. = assay: Antifungal activity, growth / hypha extension inhibition; type: cell-based
Procedure: (§2) The antifungal activity of recombinant chitinase protein was assessed by the hypha extension inhibition assay. Sclerotium rolfsii and Phytophthora sp. were provided from Hualien District Agricultural Research and Extension Station. Rhizoctonia solani and Alternaria brassicicola were provided by Dr. Jenn-Wen Hung of the Department of Plant Pathology of National Chung-Hsing University. A disc of each strain of fungus was removed from an actively growing fungal culture, and placed in the center of a fresh potato dextrose agar plate. After incubation at room temperature for 3 to 4 days, the recombinant chitinase or a control buffer (10 mM Tris-HCl pH7.5, 1 mM EDTA) were separately applied into a pool, which was 1 cm from the perimeter. The inhibition of the hypha extension was detected as a crescent-shaped zone of inhibition around the peripheral disc as the fungus grew out from the central disc.
(§3) The effects of recombinant CpCHI on the growth of Phytophthora sp., Sclerotium rolsii, and Rhizoctonia solani were examined using standard methods. Disease resistance assays were carried out using detached leaves of cabbage, bell pepper, and tomato that were inoculated with each of the pathogens. Cabbage (Brassica oleracea), bell pepper (Capsicam annuum), and tomato (Solanum lycopersicum) were obtained from Known-You Seed CO., LTD. An agar plug containing the pathogen was placed on the center of leaves. At day 1 day after inoculation, the detached leaves began to show lesions surrounded by yellow halos. Then, different solutions, including H2O, a TE buffer (10 mM Tris-HCl pH 7.5, 1 mM EDTA), or 5, 10, 15 μM CpCHI in the TE buffer was sprayed onto the leaves. At day 4 after inoculation, the pathogenesis inhibition by 5, 10, or 15 μM CpCHI was about 37%, 83%, and 98%, respectively (Table 3). […] Also, recombinant CpCHI inhibited the growth of these three fungi with as little as 15 μM, and the inhibited activity lasted for 7 days.

Rhizoctonia solani = assay: as above; type: cell-based
Procedure: as §2, §3

Sclerotium rolfsii [6] = assay: as above; type: cell-based
Procedure: as §2, §3

Sclerotium rolfsii [7] = assay: Disease resistance assay on detached leaves; type: in vivo; conditions: for pathogenesis inhibition: day 4 after inoculation
Procedure: as §3

Alternaria brassicicola = assay: Inhibition of spore germination; type: cell-based; conditions: 24° C. for 24 hours
Procedure: Assays were also carried out to examine effects of CpCHI on Alternaria brassicicola, a fungus isolated from cabbages. The fungus was cultured in potato dextrose agar (DIFCO) for 2 weeks. After sporulation, the spores of the fungus were suspended in water to a concentration of 10^4 spores mL^−1. A fungal spore stock (approximately 500 spores) was cultured at 24° C. for 24 hours in the following solutions: (A) H2O, (B) TE buffer (10 mM Tris-HCl pH 7.5, 1 mM EDTA), (C) 5 μM CpCHI in TE buffer, and (D) 10 μM CpCHI in TE buffer. The inhibition of spore germination was examined under a light microscope at 200× amplification (Li et al., 2003, Plant Cell Physiol. 44, 1162-1167). The percentage of germination was calculated from 10 different observations. All experiments were conducted in triplicates.

E. coli AD494 = assay: Antibacterial activity, growth suppression (density at 600 nm); type: cell-based; conditions: E. coli AD494, LB medium
Procedure: (§4) Experiments were conducted to examine recombinant CpCHI's ability to suppress the growth of E. coli ED2566 or E. coli AD494. Briefly, the E. coli strain was grown at 37° C. in an LB medium with shaking at 225 rpm overnight. Then, the overnight culture was 100× diluted in a fresh LB medium containing 1 μM, 1.5 μM, 2 μM, 2.5 μM, or 3 μM CpCHI. A TE buffer (10 mM Tris-HCl pH7.5, 1 mM EDTA) was used as a control. Changes in density at 600 nm were monitored. The assays were conducts in triplicates and the average were recorded to examine the inhibition of bacterial growth.

E. coli ED2566 = assay: as above; type: cell-based; conditions: E. coli ED2566, LB medium
Procedure: as §4

[8] = enzyme preincubated 30 minutes with 10 mM reagent

Molecule: O=[N+]([O-])[O-].[Ag+] [AgNO3]
- reduction / inhibition of CpCHI activity (CpCHI; 10 mM): 16.33%
- Relative activity (%) of CpCHI (CpCHI; [8]): 83.67 ± 2.52%

Molecule: O=S(=O)([O-])[O-].[Zn+2] [ZnSO4]
- reduction / inhibition of CpCHI activity (CpCHI; 10 mM): 62.0%
- Relative activity (%) of CpCHI (CpCHI; [8]): 38.00 ± 3.61%

Molecule: [Cl][Fe]([Cl])[Cl] [FeCl3]
- reduction / inhibition of CpCHI activity (CpCHI; 10 mM): 29.33%
- Relative activity (%) of CpCHI (CpCHI; [8]): 70.67 ± 3.06%

Molecule: O=C(O)CN(CCN(CC(=O)O)CC(=O)O)CC(=O)O [EDTA]
- Relative activity (%) of CpCHI (CpCHI): 93.33 ± 3.06%
- reduction / inhibition of CpCHI activity (CpCHI): 6.67%

Molecule: O=S(=O)([O-])[O-].[Cu+2] [CuSO4]
- reduction / inhibition of CpCHI activity (CpCHI; 10 mM): 60%
- Relative activity (%) of CpCHI (CpCHI; [8]): 40.00 ± 7.2%

Molecule: [Cl-].[K+] [KCl]
- reduction / inhibition of CpCHI activity (CpCHI; 10 mM): 7.67%
- Relative activity (%) of CpCHI (CpCHI; [8]): 92.33 ± 1.53%

Molecule: [Cl][Mn][Cl] [MnCl2]
- reduction / inhibition of CpCHI activity (CpCHI; 10 mM): 64.7%
- Relative activity (%) of CpCHI (CpCHI; [8]): 35.33 ± 3.06%

Molecule: [Cl][Hg][Cl] [HgCl2]
- reduction / inhibition of CpCHI activity (CpCHI; 10 mM): completely
- Relative activity (%) of CpCHI (CpCHI; [8]): 0%

B1: CpCHI: novel class IV chitinase from papaya (Carica papaya) fruit, mature form expressed in E. coli and purified on Ni-NTA (protein, listed as Carica papaya)
chain: QNCGCAPNLCCSRFGFCGQGEAYCGEGCREGPCNKPSPTPGGGSSLAEIVTPDFFNGIINQAAAGCAGKSFCSRGGFLDAANSFPEFGKLGSVDDSKREIAAFFAHVTHETGHFCHIEEINGASHDYCDEGNTQYPCAPGKNYFGRGPIQLTWNYNYGAAGDALRLNLLGSPEMVARDAAVSFKTALWFWMKNVRPVINQGFGATIRAINGAIECNGGNPGTVQARIGYYRDYCAKFGVAPGENLSC
- broad pH optima ([1]; 30° C., 3 hours, glycol chitin): 5.0-9.0
- optimal pH for the enzyme activity ([1]; 30° C., 3 hours, glycol chitin): 6.0
- optimal temperature for the enzyme activity ([1]; pH 6.0, 3 hours, glycol chitin): 30 °C
- specific activity ([1]; recombinant protein after dialysis, spectrophotometric assay, glycol chitin): 14.8 U mg^−1
- Relative activity toward glycol chitin ([1]; substrate glycol chitin): 100%
- activity maintained at different temperatures ([1]; temperatures between 10-50° C.): at least 80%
- Relative activity toward collodial chitin [2]: 59% and 58.67 ± 5.03%
- Relative activity toward chitosan [3]: 11% and 11.33 ± 2.52%
- activity retained during long-term storage ([4]; 3 weeks at 30° C.): more than 60%
- activity retained during long-term storage ([4]; 3 weeks at 37° C.): more than 50%
- hydrolyzed products of glycol chitin ([5]; after 1 hour): (GlcNAc)3
- hydrolyzed products of glycol chitin ([5]; after 2 hours): (GlcNAc)3, (GlcNAc)2, and (GlcNAc)
- hydrolyzed products of glycol chitin ([5]; final products): (GlcNAc)2 and (GlcNAc)
- antifungal activity (Phytophthora sp.): great antifungal activity
- concentration that inhibited growth (Phytophthora sp.): 15 µM
- duration of the inhibited activity (Phytophthora sp.; 15 μM): 7 days
- antifungal activity (Rhizoctonia solani): great antifungal activity
- concentration that inhibited growth (Rhizoctonia solani): 15 µM
- duration of the inhibited activity (Rhizoctonia solani; 15 μM): 7 days
- antifungal activity (Sclerotium rolfsii [6]): great antifungal activity
- concentration that inhibited growth (Sclerotium rolfsii [6]): 15 µM
- duration of the inhibited activity (Sclerotium rolfsii [6]; 15 μM): 7 days
- pathogenesis inhibition (Sclerotium rolfsii [7]; 5 μM): about 37%
- pathogenesis inhibition (Sclerotium rolfsii [7]; 10 μM): ~83%
- pathogenesis inhibition (Sclerotium rolfsii [7]; 15 μM): ~98%
- Percentage of the symptom appearing (Sclerotium rolfsii [7]; Cabbage detached leaves, 5 μM sprayed): 55.33 ± 6.11%
- Percentage of the symptom appearing (Sclerotium rolfsii [7]; Cabbage detached leaves, 10 μM sprayed): 14.33 ± 5.13%
- Percentage of the symptom appearing (Sclerotium rolfsii [7]; Cabbage detached leaves, 15 μM sprayed): 1.66 ± 2.88%
- Percentage of the symptom appearing (Sclerotium rolfsii [7]; bell pepper detached leaves, 5 μM sprayed): 66.67 ± 7.34%
- Percentage of the symptom appearing (Sclerotium rolfsii [7]; bell pepper detached leaves, 10 μM sprayed): 23.33 ± 7.64%
- Percentage of the symptom appearing (Sclerotium rolfsii [7]; bell pepper detached leaves, 15 μM sprayed): 3.33 ± 2.77%
- Percentage of the symptom appearing (Sclerotium rolfsii [7]; tomato detached leaves, 5 μM sprayed): 65 ± 15%
- Percentage of the symptom appearing (Sclerotium rolfsii [7]; tomato detached leaves, 10 μM sprayed): 13.33 ± 10.41%
- Percentage of the symptom appearing (Sclerotium rolfsii [7]; tomato detached leaves, 15 μM sprayed): 1.66 ± 1.32%
- inhibition of spore germination (Alternaria brassicicola; 5 μM): 50%
- inhibition of spore germination (Alternaria brassicicola; 10 μM): 98%
- IC50 (E. coli AD494): ~2500 nM
- IC50 (E. coli ED2566): ~2500 nM
